Assays:
[1] = target: T1, oligopeptide ATYPSGHL (SEQ ID NO: 102); test: ELISA on coated peptide
T1 construct: Synthetic peptide, part of Loop C of AQP3
T1 peptide: ATYPSGHL
Procedure: (§1) To determine the important amino acid residues of an epitope in Loop C involved in binding to specific AQP3 antibody clones, peptides of varying lengths were produced. The sequences of these peptides are shown in column 2 of Table 4.
(§2) The various peptides and AQP3 antibody clones were subjected to ELISA binding analyses. […] The microtiter wells (Costar 2690) were coated with 50 μL of each peptide at 4° C. overnight. The wells were washed 3 times with PBS and blocked with 100 μL of 1% BSA/PBS at 37° C. for 1 hour. Each antibody was adjusted to 1 μg/mL in 1% SBA/PBS as above then serially diluted 1:5 in 1% BSA/PBS. The blocker was discarded and the wells were incubated with 50 μL of antibodies at 37° C. for 1.5 hours. The wells were washed 3 times with PBS and mouse antibodies were detected with 50 μL of goat anti-mouse IgG (H+L) HRP conjugate (ThermoFisher 31438) (1:5,000 in 1% BSA/PBS) and rabbit antibodies were detected with 50 μL of goat anti-rabbit IgG (H+L) HRP conjugate (ThermoFisher 31462) (1:5,000 in 1% BSA/PBS) at 37° C. for 1 hour. The wells were washed 3 times with PBS and developed with 50 μL of HRP substrate at RT for 5 min then stopped with 50 μL of 2N sulfuric acid and binding was measured with a plate reader.

[2] = target: T2, oligopeptide TAGIFATYPSGHLDM (SEQ ID NO: 105); test: ELISA on coated peptide
T2 construct: Synthetic peptide, part of Loop C of AQP3
T2 peptide: TAGIFATYPSGHLDM
Procedure: as §1, §2

[3] = target: T3, oligopeptide GIFATYPSGHLDM (SEQ ID NO: 107); test: ELISA on coated peptide
T3 construct: Synthetic peptide, part of Loop C of AQP3
T3 peptide: GIFATYPSGHLDM
Procedure: as §1, §2

[4] = target: T4, oligopeptide ATYPSGHLDM (SEQ ID NO: 1) (human and mouse); test: ELISA on coated peptide
T4 construct: Synthetic peptide; positions 148 to 157 of the human AQP3 polypeptide, identical in mouse; also called peptide used for immunization; oligopeptide 5
T4 peptide: ATYPSGHLDM
Procedure: as §1, §2

[5] = target: T5, oligopeptide YPSGHLDM (SEQ ID NO: 97); test: ELISA on coated peptide
T5 construct: Synthetic peptide, part of Loop C of AQP3; first diluted in DMSO
T5 peptide: YPSGHLDM
Procedure: as §1, §2

[6] = target: T6, oligopeptide GHLDM (SEQ ID NO: 100); test: ELISA on coated peptide
T6 construct: Synthetic peptide, part of Loop C of AQP3
T6 peptide: GHLDM
Procedure: as §1, §2

[7] = target: T7, oligopeptide AGIFATYPSGHLDM (SEQ ID NO: 106); test: ELISA on coated peptide
T7 construct: Synthetic peptide, part of Loop C of AQP3
T7 peptide: AGIFATYPSGHLDM
Procedure: as §1, §2

[8] = target: T8, oligopeptide ATYPSGHLD (SEQ ID NO: 101); test: ELISA on coated peptide
T8 construct: Synthetic peptide, part of Loop C of AQP3
T8 peptide: ATYPSGHLD
Procedure: as §1, §2

[9] = target: T9, oligopeptide SGHLDM (SEQ ID NO: 99); test: ELISA on coated peptide
T9 construct: Synthetic peptide, part of Loop C of AQP3
T9 peptide: SGHLDM
Procedure: as §1, §2

[10] = target: T10, oligopeptide PSGHLDM (SEQ ID NO: 98); test: ELISA on coated peptide
T10 construct: Synthetic peptide, part of Loop C of AQP3
T10 peptide: PSGHLDM
Procedure: as §1, §2

[11] = target: T11, oligopeptide ATYPSGH (SEQ ID NO: 103); test: ELISA on coated peptide
T11 construct: Synthetic peptide, part of Loop C of AQP3
T11 peptide: ATYPSGH
Procedure: as §1, §2

[12] = target: T12, oligopeptide ATYPSG (SEQ ID NO: 104); test: ELISA on coated peptide
T12 construct: Synthetic peptide, part of Loop C of AQP3
T12 peptide: ATYPSG
Procedure: as §1, §2

[13] = target: T13, oligopeptide FATYPSGHLDM (SEQ ID NO: 109); test: ELISA on coated peptide
T13 construct: Synthetic peptide, part of Loop C of AQP3
T13 peptide: FATYPSGHLDM
Procedure: as §1, §2

[14] = target: T14, oligopeptide TYPSGHLDM (SEQ ID NO: 96); test: ELISA on coated peptide
T14 construct: Synthetic peptide, part of Loop C of AQP3
T14 peptide: TYPSGHLDM
Procedure: as §1, §2

[15] = target: T15, oligopeptide IFATYPSGHLDM (SEQ ID NO: 108); test: ELISA on coated peptide
T15 construct: Synthetic peptide, part of Loop C of AQP3
T15 peptide: IFATYPSGHLDM
Procedure: as §1, §2

[16] = target: T16, oligopeptide SGPNGTAGIFATYPS (SEQ ID NO: 94); test: ELISA on coated peptide
T16 construct: Synthetic peptide, part of Loop C of AQP3
T16 peptide: SGPNGTAGIFATYPS
Procedure: as §1, §2

[17] = target: T17, mouse aquaporin 3 (AQP3) on cells (mouse, UniProt Q8R2N1 1-292); test: fluorescence binding assay on PAM212 cells, 10 µg/mL (FIG. 5B)
T17 construct: whole, on cells; Water channel membrane protein; also called mouse AQP3; AQP3 on PAM212 cells
T17 sequence (looked up): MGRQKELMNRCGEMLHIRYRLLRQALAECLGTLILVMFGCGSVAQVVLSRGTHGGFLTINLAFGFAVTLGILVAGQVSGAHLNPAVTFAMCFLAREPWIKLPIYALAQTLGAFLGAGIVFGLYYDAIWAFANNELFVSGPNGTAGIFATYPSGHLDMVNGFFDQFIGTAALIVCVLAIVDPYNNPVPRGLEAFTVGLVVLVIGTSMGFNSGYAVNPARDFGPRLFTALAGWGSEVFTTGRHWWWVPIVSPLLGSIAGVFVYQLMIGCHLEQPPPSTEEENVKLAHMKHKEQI
Procedure: PAM212 and macrophage cells were reacted with each anti AQP3 antibody (0.1, 1, or 10 μg/mL) at 4° C. for 1 hour. After washing the cells, a fluorescent-labeled secondary antibody was added and the reaction was allowed to occur additionally for 1 hour (4° C.). By measuring the fluorescence intensity, the binding property of each anti AQP3 antibody to cells was obtained.
The assay was also performed using PAM212 cells and antibodies A, B, C, D, E, F, G, H, and J at a concentration of 10 μg/mL. Binding of antibodies C, D, E, G, and J to PAM212 cells was statistically significant.

[18] = target: T18, mouse AQP3 in lysate of HEK293T cells overexpressing mouse AQP3 and a myc-biotinylated tag (mouse, UniProt Q8R2N1 1-292); test: ELISA on lysate of HEK293T cells overexpressing mouse AQP3 (FIG. 3)
T18 construct: Cell lysate used in ELISA; also called AQP3 containing cell lysate; not shown: myc-biotinylated tag
T18 sequence (looked up): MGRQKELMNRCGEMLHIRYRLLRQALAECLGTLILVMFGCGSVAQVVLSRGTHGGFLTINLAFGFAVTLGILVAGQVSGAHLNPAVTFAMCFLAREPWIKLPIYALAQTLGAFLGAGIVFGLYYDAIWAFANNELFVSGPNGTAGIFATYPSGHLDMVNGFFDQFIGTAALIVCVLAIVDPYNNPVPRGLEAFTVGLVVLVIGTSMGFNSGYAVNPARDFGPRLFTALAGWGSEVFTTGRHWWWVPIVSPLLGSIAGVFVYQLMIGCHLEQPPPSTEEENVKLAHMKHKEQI
Source text: Cell lysate from HEK293T cells overexpressing mouse AQP3 and a myc-biotinylated tag was used in an ELISA assay to measure the binding of antibodies A, B, C, D, E, F, G, H, J, and K to AQP3. Cell lysate from HEK293T cells overexpressing the myc-biotinylated tag but not AQP3 was used as control. […] C. Antibody binding to AQP3 expressing cells

[19] = target: T4, oligopeptide ATYPSGHLDM (SEQ ID NO: 1); test: ELISA on peptide SEQ ID NO:1, IgG, 50% binding response (FIG. 16A)
[20] = target: T19, human aquaporin 3 (AQP3) on cells (human, UniProt Q92482 1-292); test: fluorescence binding assay on HaCaT cells, 10 µg/mL (FIG. 5C)
T19 construct: whole, on cells; Water channel membrane protein; also called human AQP3; AQP3 on HaCaT cells
T19 sequence (looked up): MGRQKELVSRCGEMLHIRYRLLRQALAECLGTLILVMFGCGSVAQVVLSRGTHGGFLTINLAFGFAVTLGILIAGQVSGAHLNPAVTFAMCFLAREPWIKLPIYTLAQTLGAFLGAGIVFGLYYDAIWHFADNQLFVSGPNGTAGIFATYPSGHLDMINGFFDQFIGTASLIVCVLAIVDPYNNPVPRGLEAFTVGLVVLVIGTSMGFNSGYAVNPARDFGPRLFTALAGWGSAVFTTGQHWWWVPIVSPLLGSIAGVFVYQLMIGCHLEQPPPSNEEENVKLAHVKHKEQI

binding signal (plate reader) [1]: 1.69
binding signal (plate reader) [2]: 2.81
binding signal (plate reader) [3]: 2.92
binding signal (plate reader) [4]: 2.21
binding signal (plate reader) [5]: 1.58
binding signal (plate reader) [6]: 0.043
binding signal (plate reader) [7]: 2.97
binding signal (plate reader) [8]: 2.52
binding signal (plate reader) [9]: 0.048
binding signal (plate reader) [10]: 0.271
binding signal (plate reader) [11]: 0.047
binding signal (plate reader) [12]: 0.044
binding signal (plate reader) [13]: 2.8
binding signal (plate reader) [14]: 1.79
binding signal (plate reader) [15]: 2.8
binding signal (plate reader) [16]: 0.045
binding result [17]: binds
binding result [18]: binds
EC50 [19]: ~0.1 µg/mL
binding result [20]: binds
B1: Antibody C (antibody, mouse IgG2a, kappa, V domains shown)
VH: QVQLKQSGAELARPGASVKLSCKASGYNFKSYGISWVKQRTGQGLEWIGEIYPGSGNTYYNEKLKGKATLTADKSSSTAYMELRSLTSEDSAVYFCARTYGYDSFPWFAYWGQGTLVTVSS
VL: DIVMTQAAPSVPVTPGESVSISCRSSKSLLHSNGNTYLYWFLQRPGQSPQLLIYRVSNLASGVPDRFSGSGSGTAFTLRISRVEAEDEGVYYCMQHLEYPFTFGAGTKLEIKR
notes: also called anti AQP3 antibody C

Source: patent publication US20220298237A1 (KEIO UNIVERSITY, published 2022)
